From PMC8386010, “Nanobody-armed T cells endow CAR-T cells with cytotoxicity against lymphoma cells” (Cancer Cell International, 2021) come the findings set out here.

No end group written: not given here.

The target in assay [1] is T1, human CD19 antigen (Homo sapiens, UniProt P15391).
T1 construct: human CD19 antigen; The supplier is named for the biotinylated antigen used in panning; source: bought: Shanghai Anyan, China
The assay can be described thus: SPR; Biacore T200; nanobody captured by immobilised mouse anti-human IgG (Fc) antibody; human CD19/CD20 antigen injected in 7 serial twofold dilutions from 10 µg/ml, 30 µl/min, association 120 s, dissociation 300 s. As to conditions: both partners purified. Background: SPR reads the build-up and loss of mass on a sensor chip optically.

Assay [2] concerns the target T1, human CD19 antigen.
For a further assay, the target named is T2, anti-CD20 Nb1 (Bactrian camel).
T2 construct: nanobody selected from a Bactrian camel naive phage display library; In SPR it was captured by an anti-human IgG (Fc) antibody; also called anti-CD20 nanobody; source: cloned into the pCZN1 vector, expressed and purified
Briefly: SPR; Biacore T200; nanobody captured by immobilised mouse anti-human IgG (Fc) antibody; human CD19/CD20 antigen injected in 7 serial twofold dilutions from 10 µg/ml, 30 µl/min, association 120 s, dissociation 300 s. As to conditions: both partners purified.

T1 sequence (P15391 20-291): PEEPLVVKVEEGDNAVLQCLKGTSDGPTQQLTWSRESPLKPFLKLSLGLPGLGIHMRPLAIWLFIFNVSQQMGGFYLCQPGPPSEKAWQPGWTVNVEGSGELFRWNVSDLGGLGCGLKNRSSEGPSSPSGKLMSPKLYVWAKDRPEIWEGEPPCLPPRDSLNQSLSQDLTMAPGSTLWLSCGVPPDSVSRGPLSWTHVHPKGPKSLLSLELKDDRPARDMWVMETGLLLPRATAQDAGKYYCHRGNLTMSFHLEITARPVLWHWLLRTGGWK

B1: anti-CD19 Nb1 (VHH)
VHH: QVQLQESGGGSVQAGGSLRLSCAVRRPTDSRNCMAWFRQAPGEQREAVAGIDIYRTTGYAESVKGRFTISQDNAKNTLFLQMNSLKPEDSGTYYCAAARPCKYGSEWRRSASDFLYWGQGTQVTVSS
notes: nanobody selected from a Bactrian camel naive phage display library; In SPR it was captured by an anti-human IgG (Fc) antibody; also called anti-CD19 nanobody; source: cloned into the pCZN1 vector, expressed and purified
A word on the Kd: it is the equilibrium constant for the complex coming apart. A higher Kd goes with lower affinity. In turn, B1 gave a Kd in the assay with human CD19 antigen [1] of 290 nM.

B2: Anti-CD19 Nb2 (VHH)
VHH: QVQLQESGGGSVQTGGSLRLSCAASGFSYTGHHMGWFRQVAAQEREWVGSIYTDPGTTFYADSVKGRFTISQDVAKKMVYLQMNNLKPTDTGIYFCAAEPVADGPPLMSRDRCFGSWGQGTQVTVSS
Consider B2, for which, in the assay with human CD19 antigen [2], the binding result is recorded as “binds”.

B3: Anti-CD19 Nb3 (VHH)
VHH: QVQLQESGGGSVQGGGSLRLSCAVSGATYMIQYMGWFRQAPGKEREGVAVIHSDDRTTYADSVKGRFTISQDNANHTLYLQMNSLKPEDTGMYVCASSLSKGGYYRGDLVPGQFTYWGRGTQVTVSS
B3: the binding result with human CD19 antigen [2] was “binds”.

B4: human CD20 antigen (natural protein)
chain: KISHFLKMESLNFIRAHTPYINIYNCEPANPSEKNSPSTQYCYSIQS
modifications: cysteine pairing not given here; also: biotinylated for panning, position not given here
B4 registered a Kd with anti-CD20 Nb1 of 147 nM.
